First the molecules themselves.
B1: glmS ribozyme (parent)
chain: AUAAAAGCGCCAGAACUACAGAAAUGUAGUUGACGAGGAGGAGGUUUAUCGAAUUUUCGGCGGAUGCCUCCAAA

Conditions in all cases: with glucosamine-6-phosphate
In data set [1] the parent is B1. As to the kind of experiment: self-cleavage kobs at 40 uM GlcN6P; higher = faster cleavage; RNA array. The gist of the method:
(§1)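 Barcoded ribozyme variants, transcribed in situ by E. coli RNA polymerase on sequenced MiSeq chips, were followed via a hybridised Cy3 probe at 37 °C. Glucosamine-6-phosphate ranged from 40 μM to 10 mM in HEPES/KCl/Mg(OAc)2 buffer. kobs came from decay fits to per-tile medians, and kcat and KM from weighted Michaelis–Menten fits.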

In data set [2] the parent is B1. As to the kind of experiment: self-cleavage kobs at 160 uM GlcN6P; higher = faster cleavage; RNA array. The gist of the method: as §1
Data set [3] covers variants of B1. The data set can be described thus: self-cleavage kobs at 640 uM GlcN6P; higher = faster cleavage; RNA array. The gist of the method:
as §1

In data set [4] the parent is B1. The data set can be described thus: self-cleavage kobs at 2500 uM GlcN6P; higher = faster cleavage; RNA array. The gist of the method: as §1
In data set [5] the parent is B1. The data set can be described thus: self-cleavage kobs at 10000 uM GlcN6P; higher = faster cleavage; RNA array. The gist of the method:
as §1

± gives the standard error. Variants at the floor of the assay were thinned out. A value given as a limit tells only on which side of the number the result lay.

For the variant U31G C70U, in the data set with glucosamine-6-phosphate [1], the “self-cleavage kobs at 40 uM GlcN6P” value is 0.000479 ± 7.2e-05 s⁻¹. Besides, the “self-cleavage kobs at 160 uM GlcN6P” value with glucosamine-6-phosphate [2] was 0.00104 ± 0.0002 s⁻¹. Besides, the “self-cleavage kobs at 640 uM GlcN6P” value in the data set with glucosamine-6-phosphate [3] is 0.0023 ± 0.00038 s⁻¹. Besides, the “self-cleavage kobs at 2500 uM GlcN6P” value with glucosamine-6-phosphate [4] is 0.0117 ± 0.0029 s⁻¹. For the same variant, the “self-cleavage kobs at 10000 uM GlcN6P” value in the data set with glucosamine-6-phosphate [5] was determined as 0.0305 ± 0.0058 s⁻¹.

With G9C C34G, the “self-cleavage kobs at 40 uM GlcN6P” value in the data set with glucosamine-6-phosphate [1] is below 1e-05 s⁻¹. Moreover, the “self-cleavage kobs at 160 uM GlcN6P” value with glucosamine-6-phosphate [2] was below 1e-05 s⁻¹. The “self-cleavage kobs at 640 uM GlcN6P” value with glucosamine-6-phosphate [3] was below 1e-05 s⁻¹. Moreover, the “self-cleavage kobs at 2500 uM GlcN6P” value in the data set with glucosamine-6-phosphate [4] is below 1e-05 s⁻¹. Further, in the data set with glucosamine-6-phosphate [5], the “self-cleavage kobs at 10000 uM GlcN6P” value is below 1e-05 s⁻¹.

Turning to C34U A36C C58A, in the data set with glucosamine-6-phosphate [1], the “self-cleavage kobs at 40 uM GlcN6P” value was below 1e-05 s⁻¹.

With U49G U54G, the “self-cleavage kobs at 40 uM GlcN6P” value with glucosamine-6-phosphate [1] was determined as 3.67e-05 ± 1.4e-05 s⁻¹. The “self-cleavage kobs at 10000 uM GlcN6P” value with glucosamine-6-phosphate [5] is 0.000838 ± 0.00014 s⁻¹.

For the variant U30G A52C U65G C67G C70U, in the data set with glucosamine-6-phosphate [1], the “self-cleavage kobs at 40 uM GlcN6P” value was below 1e-05 s⁻¹.

For the variant G59A A64C, in the data set with glucosamine-6-phosphate [1], the “self-cleavage kobs at 40 uM GlcN6P” value was below 1e-05 s⁻¹. The “self-cleavage kobs at 160 uM GlcN6P” value with glucosamine-6-phosphate [2] was below 1e-05 s⁻¹. Further, the “self-cleavage kobs at 640 uM GlcN6P” value in the data set with glucosamine-6-phosphate [3] is below 1e-05 s⁻¹. In addition, the “self-cleavage kobs at 2500 uM GlcN6P” value in the data set with glucosamine-6-phosphate [4] is below 1e-05 s⁻¹.

Regarding A6C U30G G51A U65G, the “self-cleavage kobs at 40 uM GlcN6P” value with glucosamine-6-phosphate [1] was below 1e-05 s⁻¹. For the same variant, the “self-cleavage kobs at 10000 uM GlcN6P” value with glucosamine-6-phosphate [5] is below 1e-05 s⁻¹.

For the variant C34U A42G, the “self-cleavage kobs at 40 uM GlcN6P” value with glucosamine-6-phosphate [1] was below 1e-05 s⁻¹. The “self-cleavage kobs at 160 uM GlcN6P” value with glucosamine-6-phosphate [2] was below 1e-05 s⁻¹. Further, the “self-cleavage kobs at 10000 uM GlcN6P” value with glucosamine-6-phosphate [5] was below 1e-05 s⁻¹.

For G7U G32A, the “self-cleavage kobs at 40 uM GlcN6P” value in the data set with glucosamine-6-phosphate [1] is below 1e-05 s⁻¹. The “self-cleavage kobs at 160 uM GlcN6P” value with glucosamine-6-phosphate [2] was below 1e-05 s⁻¹. Also, in the data set with glucosamine-6-phosphate [3], the “self-cleavage kobs at 640 uM GlcN6P” value is below 1e-05 s⁻¹. Further, in the data set with glucosamine-6-phosphate [4], the “self-cleavage kobs at 2500 uM GlcN6P” value is below 1e-05 s⁻¹. Also, the “self-cleavage kobs at 10000 uM GlcN6P” value with glucosamine-6-phosphate [5] is below 1e-05 s⁻¹.

G32U A36G: in the data set with glucosamine-6-phosphate [1], the “self-cleavage kobs at 40 uM GlcN6P” value is below 1e-05 s⁻¹. For the same variant, the “self-cleavage kobs at 160 uM GlcN6P” value with glucosamine-6-phosphate [2] is below 1e-05 s⁻¹. In the data set with glucosamine-6-phosphate [3], the “self-cleavage kobs at 640 uM GlcN6P” value is below 1e-05 s⁻¹. Moreover, the “self-cleavage kobs at 2500 uM GlcN6P” value with glucosamine-6-phosphate [4] was below 1e-05 s⁻¹. Besides, the “self-cleavage kobs at 10000 uM GlcN6P” value with glucosamine-6-phosphate [5] is below 1e-05 s⁻¹.

For A42U A48C, the “self-cleavage kobs at 40 uM GlcN6P” value in the data set with glucosamine-6-phosphate [1] was below 1e-05 s⁻¹. Also, the “self-cleavage kobs at 160 uM GlcN6P” value with glucosamine-6-phosphate [2] is below 1e-05 s⁻¹. Also, in the data set with glucosamine-6-phosphate [3], the “self-cleavage kobs at 640 uM GlcN6P” value was below 1e-05 s⁻¹. Further, in the data set with glucosamine-6-phosphate [4], the “self-cleavage kobs at 2500 uM GlcN6P” value was below 1e-05 s⁻¹.

Regarding A53C G59A, in the data set with glucosamine-6-phosphate [1], the “self-cleavage kobs at 40 uM GlcN6P” value was below 1e-05 s⁻¹. Besides, the “self-cleavage kobs at 640 uM GlcN6P” value with glucosamine-6-phosphate [3] is below 1e-05 s⁻¹.

With A39C G41U, the “self-cleavage kobs at 40 uM GlcN6P” value with glucosamine-6-phosphate [1] is below 1e-05 s⁻¹. In addition, the “self-cleavage kobs at 160 uM GlcN6P” value with glucosamine-6-phosphate [2] was below 1e-05 s⁻¹.

As to A6G G44A, the “self-cleavage kobs at 40 uM GlcN6P” value in the data set with glucosamine-6-phosphate [1] was below 1e-05 s⁻¹. Also, the “self-cleavage kobs at 160 uM GlcN6P” value with glucosamine-6-phosphate [2] was below 1e-05 s⁻¹. Also, in the data set with glucosamine-6-phosphate [3], the “self-cleavage kobs at 640 uM GlcN6P” value is below 1e-05 s⁻¹. The “self-cleavage kobs at 2500 uM GlcN6P” value in the data set with glucosamine-6-phosphate [4] is below 1e-05 s⁻¹. Further, the “self-cleavage kobs at 10000 uM GlcN6P” value with glucosamine-6-phosphate [5] is below 1e-05 s⁻¹.

For A39C A42U A48G C50A, the “self-cleavage kobs at 40 uM GlcN6P” value with glucosamine-6-phosphate [1] is below 1e-05 s⁻¹.

On to G9C C10A A52C C61U, for which the “self-cleavage kobs at 40 uM GlcN6P” value with glucosamine-6-phosphate [1] was below 1e-05 s⁻¹. The “self-cleavage kobs at 10000 uM GlcN6P” value with glucosamine-6-phosphate [5] was below 1e-05 s⁻¹.

In the case of C58G G60A, in the data set with glucosamine-6-phosphate [1], the “self-cleavage kobs at 40 uM GlcN6P” value is below 1e-05 s⁻¹.

For the variant G9U G35C G43A, the “self-cleavage kobs at 40 uM GlcN6P” value with glucosamine-6-phosphate [1] was below 1e-05 s⁻¹. Further, the “self-cleavage kobs at 160 uM GlcN6P” value with glucosamine-6-phosphate [2] was below 1e-05 s⁻¹. In addition, in the data set with glucosamine-6-phosphate [3], the “self-cleavage kobs at 640 uM GlcN6P” value was below 1e-05 s⁻¹.

Take G43A U49G: in the data set with glucosamine-6-phosphate [1], the “self-cleavage kobs at 40 uM GlcN6P” value was below 1e-05 s⁻¹. Moreover, the “self-cleavage kobs at 160 uM GlcN6P” value with glucosamine-6-phosphate [2] was below 1e-05 s⁻¹. In the data set with glucosamine-6-phosphate [3], the “self-cleavage kobs at 640 uM GlcN6P” value is below 1e-05 s⁻¹. Also, the “self-cleavage kobs at 2500 uM GlcN6P” value in the data set with glucosamine-6-phosphate [4] is below 1e-05 s⁻¹.

As to G13A U31C A36U C58A G60C G62A C67G, in the data set with glucosamine-6-phosphate [1], the “self-cleavage kobs at 40 uM GlcN6P” value turned out to be 6.61e-05 ± 3.2e-05 s⁻¹. In addition, the “self-cleavage kobs at 2500 uM GlcN6P” value in the data set with glucosamine-6-phosphate [4] came out at 0.000425 ± 0.00017 s⁻¹.

Consider A6U G44C C50A, for which the “self-cleavage kobs at 40 uM GlcN6P” value with glucosamine-6-phosphate [1] is below 1e-05 s⁻¹.

For C8U G32C G60U, in the data set with glucosamine-6-phosphate [1], the “self-cleavage kobs at 40 uM GlcN6P” value was below 1e-05 s⁻¹. Moreover, the “self-cleavage kobs at 160 uM GlcN6P” value in the data set with glucosamine-6-phosphate [2] is below 1e-05 s⁻¹. In the data set with glucosamine-6-phosphate [3], the “self-cleavage kobs at 640 uM GlcN6P” value is below 1e-05 s⁻¹. The “self-cleavage kobs at 2500 uM GlcN6P” value with glucosamine-6-phosphate [4] is below 1e-05 s⁻¹. In the data set with glucosamine-6-phosphate [5], the “self-cleavage kobs at 10000 uM GlcN6P” value was below 1e-05 s⁻¹.

Values taken from the supplement of paper PMC7125110.
